# doi:10.64898/2025.12.03.692196v2
# Legend:
# [1] = substrate: Nc1ncnc2c1ncn2[C@@H]1O[C@H](COP(=O)(O)OP(=O)(O)OP(=O)(O)O)[C@@H](O)[C@H]1O; assay: purified protein, by the assay type
# [2] = substrate: C[C@@H](O)[C@H](N)C(=O)O; assay: LC-MS of AMP formed from TC-AMP, Michaelis-Menten; format: biochemical, Homo sapiens; details: 250 µM ATP, 50 mM NaHCO3, 10 mM MgCl2, Tricine pH 8.5, 37 °C
Protein,Km [1] [µM],kcat [1] [s⁻¹],kcat/Km [1] [M⁻¹ s⁻¹],Km [2] [µM]
"YRDCWT (human YRDC, ΔN43) (Homo sapiens; R253K) (protein) GARLLRLPGSGAVQAASPERAGWTEALRAAVAELRAGAVVAVPTDTLYGLACAASCSAALRAVYRLKGRSEAKPLAVCLGRVADVYRYCRVRVPEGLLKDLLPGPVTLVMERSEELNKDLNPFTPLVGIRIPDHAFMQDLAQMFEGPLALTSANLSSQASSLNVEEFQDLWPQLSLVIDGGQIGDGQSPECRLGSTVVDLSVPGKFGIIKPGCALESTTAILQQKYGLLPSHASYL",737.5 ± 521.2,0.005 ± 0.003,7 ± 6,–
"YRDCWT (human YRDC, ΔN43) (Homo sapiens) (protein) GARLLRLPGSGAVQAASPERAGWTEALRAAVAELRAGAVVAVPTDTLYGLACAASCSAALRAVYRLKGRSEAKPLAVCLGRVADVYRYCRVRVPEGLLKDLLPGPVTLVMERSEELNKDLNPFTPLVGIRIPDHAFMQDLAQMFEGPLALTSANLSSQASSLNVEEFQDLWPQLSLVIDGGQIGDGQSPECRLGSTVVDLSVPGKFGIIRPGCALESTTAILQQKYGLLPSHASYL",–,–,–,7800
"YRDCWT (human YRDC, ΔN43) T89A (Homo sapiens; T89A) (protein) MSPARRCRGMRAAVAASVGLSEGPAGSRSGRLFRPPSPAPAAPGARLLRLPGSGAVQAASPERAGWTEALRAAVAELRAGAVVAVPTDALYGLACAASCSAALRAVYRLKGRSEAKPLAVCLGRVADVYRYCRVRVPEGLLKDLLPGPVTLVMERSEELNKDLNPFTPLVGIRIPDHAFMQDLAQMFEGPLALTSANLSSQASSLNVEEFQDLWPQLSLVIDGGQIGDGQSPECRLGSTVVDLSVPGKFGIIRPGCALESTTAILQQKYGLLPSHASYL",230.7 ± 217.6,0.02 ± 0.001,90 ± 80,–
YRDCS195A (Homo sapiens; S238A) (protein) MSPARRCRGMRAAVAASVGLSEGPAGSRSGRLFRPPSPAPAAPGARLLRLPGSGAVQAASPERAGWTEALRAAVAELRAGAVVAVPTDTLYGLACAASCSAALRAVYRLKGRSEAKPLAVCLGRVADVYRYCRVRVPEGLLKDLLPGPVTLVMERSEELNKDLNPFTPLVGIRIPDHAFMQDLAQMFEGPLALTSANLSSQASSLNVEEFQDLWPQLSLVIDGGQIGDGQSPECRLGATVVDLSVPGKFGIIRPGCALESTTAILQQKYGLLPSHASYL,711.8 ± 175.5,0.005 ± 0.0009,7 ± 2,–
